Legend:
Test in all cases: cell-based or functional assay
Soli C1 = Soli C1 (Solenopsis invicta)
Soli E1 = Soli E1 (Solenopsis invicta)
Soli E2 = target: T1, Soli E2 (Solenopsis invicta)
T1 chain: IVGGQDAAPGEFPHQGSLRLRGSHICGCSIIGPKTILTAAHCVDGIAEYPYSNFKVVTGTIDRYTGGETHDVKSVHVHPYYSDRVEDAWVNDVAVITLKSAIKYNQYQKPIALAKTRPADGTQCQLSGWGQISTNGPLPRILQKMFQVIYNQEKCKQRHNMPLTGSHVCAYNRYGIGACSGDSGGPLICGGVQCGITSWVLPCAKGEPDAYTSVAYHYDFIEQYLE

Soli C2 = Soli C2 (Solenopsis invicta)
Soli C2 (Solenopsis invicta), sequence (main, as listed by the source): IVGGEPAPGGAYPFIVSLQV

Soli C1 (Solenopsis invicta), sequence (Q7SIG2 other isoform, or with tags, fused parts or gaps): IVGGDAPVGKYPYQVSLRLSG
Soli E1 (Solenopsis invicta), sequence (main, as listed by the source): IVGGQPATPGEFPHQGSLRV

B1: Lima Bean Trypsin Inhibitor (other, UniProt P01056 1-83, looked up)
chain: SGHHEHSTDXPSXSSKPCCXHCACTKSIPPQCRCTDLRLDSCHSACKSCICTLSIPAQCVCXXIXDFCYEPCKSSHSDDDNNN
modifications: not fully specified
**Q.** B1 was tested. Which “IC50” value (Soli C1) did it give?
**A.** The value was 18.4 nM.

**Q.** What about the “IC50” value (Soli E1) of the same binder?
**A.** The value was > 50 nM.

**Q.** And the “IC50” value (Soli E2)?
**A.** The value was > 50 nM.

**Q.** What about the “IC50” value (Soli C2) of the same binder?
**A.** Its value is 1.46 nM.

— patent US6399759 (UNIVERSITY OF GEORGIA RESEARCH FOUNDATION, dated 2002)
